Earlier results as cited in publication PMC3742580.

Target: Ras (Homo sapiens) (UniProt P01112)

RalGDS RA, sequence (Q12967 798-885): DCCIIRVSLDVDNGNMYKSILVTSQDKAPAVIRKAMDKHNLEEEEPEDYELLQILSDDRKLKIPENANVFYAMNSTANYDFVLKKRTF

Kd: 1.9 µM
Substance: RalGDS RA (from UniProt Q12967)
